Assay in all cases: cytokine release
Test [1] addresses T1, HPV16 oncoprotein E5 peptide on HLA-B*15:01 (human).
T1 peptide: LLWITAASAF

The target of test [2] is T2, HPV16 oncoprotein E5 peptide on HLA-B*15:01 (human).
T2 peptide: ITAASAFRCFIVY

Test [3] concerns the target T3, HPV16 oncoprotein E5 peptide on HLA-B*15:01 (human).
T3 peptide: WITAASAFRCFIVY

The target in test [4] is T4, HPV16 oncoprotein E5 peptide on HLA-B*15:01 (human).
T4 peptide: AASAFRCFIVY

The target in test [5] is T5, HPV16 oncoprotein E5 peptide on HLA-B*15:01 (human).
T5 peptide: WITAASAF

The target of test [6] is T6, HPV16 oncoprotein E5 peptide on HLA-B*15:01 (human).
T6 peptide: TAASAFRCFIVY

Test [7] deals with T7, HPV16 oncoprotein E5 peptide on HLA-B*15:01 (human).
T7 peptide: ASAFRCFIVY

Test [8] concerns the target T8, HPV16 oncoprotein E5 peptide on HLA-B*15:01 (human).
T8 peptide: LLLWITAASAF

The text below walks through data of US20180073013A1 (published 2018).

B1: HPV16 E5-specific TCR (TRAV17 + TRBV6-5) (TCR, V domains shown)
Valpha: SQQGEEDPQALSIQEGENATMNCSYKTSINNLQWYRQNSGRGLVHLILIRSNEREKHSGRLRVTLDTSKKSSSLLITASRAADTASYFCAESEYGNKLVFGAGTILRVKS
Vbeta: NAGVTQTPKFQVLKTGQSMTLQCAQDMNHEYMSWYRQDPGMGLRLIHYSVGAGITDQGEVPNGYNVSRSTTEDFPLRLLSAAPSQTSVYFCASSYRQQETQYFGPGTRLLVL
In the case of B1, the binding result in test [1] is recorded as “no recognition”; in test [2], “recognises”; in test [3] it was “recognises”; in test [4] it was “recognises”; in test [5] it was “no recognition”; in test [6], “recognises”. Moreover, the binding result in test [7] is “recognises”; in test [8], “no recognition”.
